According to paper PMC5349899 (Oncotarget, 2016):

B1: bivalent TGF-β receptor trap ER (BGE-RII) (other)
chain: GPEPSTRCELSPINASHPVQALMESFTVLSGCASRGTTGLPREVHVLNLRSTDQGPGQRQREVTLHLNPIASVHTHHKPIVFLLNSPQPLVWHLKTERLAAGVPRLFLVSEGSVVQFPSGNFSLTAETEERNFPQENEHLLRWAQKEYGAVTSFTELKIARNIYIKVGEDQVFPPTCNIGKNFLSLNYLAEYLQPKAAEGCVLPSQPHEKEVHIIELITPSSNPYSAFQVDIIVDIRPAQEDPEVVKNLVLILKCKKSVNWVIKSFDVKGNLKVIAPNSIGFGKESERSMTMTKLVRDDIPSTQENLMKWALDNGYRPVTSYTMAPVANRFHLRLENNEEMRDEEVHTIPPELRILLDPDNGAVKFPQLCKFCDVRFSTCDNQKSCMSNCSITSICEKPQEVCVAVWRKNDENITLETVCHDPKLPYHDFILEDAASPKCIMKEKKKPGETFFMCSCSSDECNDNIIFSEEYNTSNPD
modifications: N-linked glycans (as isolated, glycosylated)
B2: trivalent TGF-β receptor trap RER (RII-BGE-RII) (other)
chain: NGAVKFPQLCKFCDVRFSTCDNQKSCMSNCSITSICEKPQEVCVAVWRKNDENITLETVCHDPKLPYHDFILEDAASPKCIMKEKKKPGETFFMCSCSSDECNDNIIFSEEYNTSNPDGPEPSTRCELSPINASHPVQALMESFTVLSGCASRGTTGLPREVHVLNLRSTDQGPGQRQREVTLHLNPIASVHTHHKPIVFLLNSPQPLVWHLKTERLAAGVPRLFLVSEGSVVQFPSGNFSLTAETEERNFPQENEHLLRWAQKEYGAVTSFTELKIARNIYIKVGEDQVFPPTCNIGKNFLSLNYLAEYLQPKAAEGCVLPSQPHEKEVHIIELITPSSNPYSAFQVDIIVDIRPAQEDPEVVKNLVLILKCKKSVNWVIKSFDVKGNLKVIAPNSIGFGKESERSMTMTKLVRDDIPSTQENLMKWALDNGYRPVTSYTMAPVANRFHLRLENNEEMRDEEVHTIPPELRILLDPDNGAVKFPQLCKFCDVRFSTCDNQKSCMSNCSITSICEKPQEVCVAVWRKNDENITLETVCHDPKLPYHDFILEDAASPKCIMKEKKKPGETFFMCSCSSDECNDNIIFSEEYNTSNPD
modifications: N-linked glycans (as isolated, glycosylated)

Biological target: T1, TGF-β2
T1 sequence (P61812 303-414, species assumed, looked up): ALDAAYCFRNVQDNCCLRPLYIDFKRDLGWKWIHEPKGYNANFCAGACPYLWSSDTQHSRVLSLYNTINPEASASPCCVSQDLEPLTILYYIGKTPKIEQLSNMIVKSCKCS
Test: cell-based or functional assay

Binder	IC50 of inhibition of PAI-1 luciferase reporter activity in Mv1Lu mink lung epithelial cells induced with 20 pM TGF-β2
B1	1200 pM
B2	70 pM
